# Data as given in the supplement of paper PMC10567573.
# B1: DYRK1B (parent)
# chain: KKVLNHGYDDDNHDYIVRSGERWL
# Variants of: B1
# Assay: protein stability index of a GFP-peptide fusion (GPS, HEK-293T) (PSI 1-6); higher = more stable
# Conditions: c terminus: a fixed tail appended
# 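Further: lentivirally expressed fusions sorted by FACS into six bins by GFP to DsRed ratio, PSI derived from sequencing read proportions per bin multiplied by bin number.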
row,Variant,protein stability index
1,Y15V,3.38
2,Y15Q,4.05
3,Y15A,3.79
4,Y15I,3.5
5,Y15M,3.27
6,Y15F,3.09
7,Y15H,3.42
8,Y15L,3.05
9,Y15C,3.58
10,Y15K,3.56
11,Y15P,3.6
12,Y15R,3.72
13,Y15D,4.19
14,Y15W,3.07
15,Y15N,3.88
16,Y15G,3.82
17,Y15E,4.02
18,Y15T,2.95
19,Y15S,3.32
20,D14T,2.79
21,D14F,2.21
22,D14R,2.86
23,D14V,2.13
24,D14Y,2.55

row,Variant,protein stability index
1,D14S,2.82
2,D14H,3.03
3,D14K,3
4,D14C,2.64
5,D14I,2.37
6,D14Q,2.35
7,D14E,3.03
8,D14L,1.67
9,D14A,2.78
10,D14N,3.12
11,D14M,2.58
12,D14G,2.71
13,D14W,1.85
14,D14P,2.71
15,V17I,2.55
16,V17N,3.65
17,V17R,3.53
18,V17L,3.07
19,V17E,4.03
20,V17Y,2.94
21,V17Q,3.57
22,V17W,2.56
23,V17P,3.86
24,V17D,3.56

row,Variant,protein stability index
1,V17G,3.36
2,V17S,3.36
3,V17T,2.97
4,V17K,3.4
5,V17F,2.74
6,V17C,2.6
7,V17H,3.46
8,V17A,3.11
9,V17M,2.98
10,R22G,3.19
11,R22F,1.91
12,R22C,2.85
13,R22P,3.16
14,R22Q,3.53
15,R22H,3.13
16,R22S,3.35
17,R22N,3.31
18,R22A,3.15
19,R22L,2.25
20,R22Y,2.52
21,R22V,2.6
22,R22D,3.44
23,R22E,3.58
24,R22K,3.29

row,Variant,protein stability index
1,R22I,2.17
2,R22T,2.83
3,R22W,2.06
4,R22M,2.57
5,S19P,2.51
6,S19C,2.59
7,S19Q,3.46
8,S19Y,2.53
9,S19K,3.2
10,S19R,2.78
11,S19M,2.6
12,S19H,3.91
13,S19W,2.21
14,S19L,2.42
15,S19V,2.98
16,S19F,2.29
17,S19N,3.22
18,S19D,3.64
19,S19T,3.06
20,S19A,3.57
21,S19I,2.07
22,S19G,3.25
23,S19E,3.25
24,R18F,2.39

row,Variant,protein stability index
1,R18I,2.62
2,R18C,2.82
3,R18K,3.74
4,R18V,2.67
5,R18L,2.39
6,R18M,2.39
7,R18P,3.24
8,R18T,2.92
9,R18Q,3.78
10,R18A,3
11,R18W,2.38
12,R18E,3.75
13,R18D,3.78
14,R18Y,2.48
15,R18G,3.45
16,R18H,3.4
17,R18N,2.9
18,R18S,3.1
19,G20H,2.67
20,G20K,3.32
21,G20I,2.73
22,G20V,2.03
23,G20Y,2.23
24,G20S,3.01

row,Variant,protein stability index
1,G20R,3.54
2,G20T,2.83
3,G20D,3.22
4,G20W,2.31
5,G20L,1.88
6,G20C,2.95
7,G20F,2.04
8,G20M,2.13
9,G20E,3.65
10,G20Q,3.34
11,G20P,3.2
12,G20N,3.29
13,G20A,2.73
14,E21N,2.67
15,E21M,2.57
16,E21H,2.4
17,E21G,2.57
18,E21R,2.83
19,E21S,2.42
20,E21D,2.86
21,E21K,3.1
22,E21Q,3.05
23,E21I,2.16
24,E21L,3.02

row,Variant,protein stability index
1,E21F,2.16
2,E21P,2.61
3,E21Y,2.32
4,E21V,2.28
5,E21T,2.7
6,E21C,2.19
7,E21A,2.97
8,E21W,2.57
9,I16N,3.24
10,I16M,3.32
11,I16V,3.86
12,I16W,2.71
13,I16A,3.73
14,I16R,3.49
15,I16S,3.68
16,I16H,3.23
17,I16P,3.55
18,I16Q,3.58
19,I16F,3.09
20,I16G,3.71
21,I16L,3.09
22,I16T,3.47
23,I16D,3.84
